The values that follow come from PMC3711080 (Bioconjugate chemistry, 2011).

Assay [1] concerns the target CXCR4 (Homo sapiens, UniProt P61073). The assay is described as follows: Competition binding against 250 nM of peptide 3, flow cytometry. Particulars: ratio of KD values, higher affinity of 1. For orientation: Flow cytometry measures light scatter and fluorescence of single cells or particles in a stream.
For assay [2], the target named is chemokine receptor 4 (CXCR4) (human (endogenous in MDAMB231)) (UniProt P61073). Kind of assay: flow cytometry on cells.
chemokine receptor 4 (CXCR4) (human (endogenous in MDAMB231)), sequence (P61073 whole entry): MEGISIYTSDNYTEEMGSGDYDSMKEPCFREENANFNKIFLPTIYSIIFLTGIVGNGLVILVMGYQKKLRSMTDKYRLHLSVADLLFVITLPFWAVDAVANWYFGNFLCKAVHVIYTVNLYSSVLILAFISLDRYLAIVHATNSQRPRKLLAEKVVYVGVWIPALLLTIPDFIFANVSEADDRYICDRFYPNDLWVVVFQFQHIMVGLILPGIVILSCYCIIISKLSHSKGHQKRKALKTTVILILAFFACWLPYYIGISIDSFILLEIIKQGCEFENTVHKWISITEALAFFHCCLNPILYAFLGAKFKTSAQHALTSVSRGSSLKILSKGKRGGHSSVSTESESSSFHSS

CXCR4, sequence (P61073 whole entry): as above

Ac-TZ14011 [compound 1]: the “receptor affinity relative to derivatives 3 and 4” value in assay [1] is reported as “approximately 20 times”. Broadly, the Kd is a measure of binding affinity in units of concentration. High values mean weaker binding, low ones tighter binding. As to “Ac-TZ14011 labeled with the MSAP reagent (peptide 3)”, in assay [2], the dissociation constant Kd is 187 nM and the MFIR (mean fluorescence intensity ratio), MDAMB231^CXCR4+ cells came out at 45.3. On the same counts, the results for “Ac-TZ14011 labeled with the MSAP reagent, indium-labeled (peptide 4)” are 177 nM and 56.7.
